In paper PMC9426472, “Blockade of the Adenylate Cyclase Toxin Synergizes with Opsonizing Antibodies to Protect Mice against Bordetella pertussis” (mBio, 2022):

Key:
[1] = target: integrin αMβ2 (Homo sapiens) (UniProt P11215); experiment: SPR; details: cited from earlier work
[2] = target: T1, soluble, purified mouse αMβ2 integrin (ectodomain heterodimer) (mouse, UniProt P05555 17-1105; P11835 24-701); experiment: SPR; Biacore X100; M1F5 Fab amine-coupled to both flow cells of a CM5 chip (~2,500 RU); ~10 RU RTX (10 nM) captured on flow cell 2 in each cycle; mouse αMβ2 at 6.13 to 200 nM flowed for 180 s, dissociation 600 s; 10 mM HEPES pH 7.4, 150 mM NaCl, 1 mM CaCl2, 1 mM MgCl2, 0.05% Tween 20; global 1:1 binding model; details: both partners purified
T1 construct: also called CR3; MAC-1
T1 sequence (P05555 other isoform, or with tags, fused parts or gaps, chain 1 of 2): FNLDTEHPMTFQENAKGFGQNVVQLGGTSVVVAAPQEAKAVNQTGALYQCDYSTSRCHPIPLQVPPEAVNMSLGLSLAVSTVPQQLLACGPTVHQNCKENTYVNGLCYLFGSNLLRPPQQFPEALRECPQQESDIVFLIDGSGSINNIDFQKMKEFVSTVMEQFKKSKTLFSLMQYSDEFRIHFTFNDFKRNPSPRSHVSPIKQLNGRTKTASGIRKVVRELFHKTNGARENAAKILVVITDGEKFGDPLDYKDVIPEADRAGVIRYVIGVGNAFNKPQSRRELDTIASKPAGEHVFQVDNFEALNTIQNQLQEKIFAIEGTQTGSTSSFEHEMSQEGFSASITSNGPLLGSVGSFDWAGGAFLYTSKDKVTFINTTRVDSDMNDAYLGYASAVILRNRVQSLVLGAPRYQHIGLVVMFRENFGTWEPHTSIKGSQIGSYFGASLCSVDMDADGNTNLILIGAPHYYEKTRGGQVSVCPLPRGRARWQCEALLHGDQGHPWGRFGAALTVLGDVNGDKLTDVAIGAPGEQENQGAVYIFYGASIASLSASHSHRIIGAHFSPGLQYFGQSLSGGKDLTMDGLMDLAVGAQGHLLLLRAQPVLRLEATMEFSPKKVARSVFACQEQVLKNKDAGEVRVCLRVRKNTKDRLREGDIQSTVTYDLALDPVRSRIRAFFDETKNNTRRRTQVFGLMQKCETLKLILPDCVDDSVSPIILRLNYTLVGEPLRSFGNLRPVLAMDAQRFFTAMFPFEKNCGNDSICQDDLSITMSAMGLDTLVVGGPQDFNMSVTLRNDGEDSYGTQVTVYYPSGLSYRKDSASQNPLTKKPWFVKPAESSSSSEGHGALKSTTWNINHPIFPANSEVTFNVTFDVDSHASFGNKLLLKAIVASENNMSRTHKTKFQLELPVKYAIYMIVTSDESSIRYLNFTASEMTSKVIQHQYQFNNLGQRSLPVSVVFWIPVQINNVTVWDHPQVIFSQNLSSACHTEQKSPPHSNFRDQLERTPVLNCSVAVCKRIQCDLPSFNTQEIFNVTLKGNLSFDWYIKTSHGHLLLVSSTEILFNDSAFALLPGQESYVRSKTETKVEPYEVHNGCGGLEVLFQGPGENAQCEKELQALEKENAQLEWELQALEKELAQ
T1 sequence (P11835 other isoform, or with tags, fused parts or gaps, chain 2 of 2): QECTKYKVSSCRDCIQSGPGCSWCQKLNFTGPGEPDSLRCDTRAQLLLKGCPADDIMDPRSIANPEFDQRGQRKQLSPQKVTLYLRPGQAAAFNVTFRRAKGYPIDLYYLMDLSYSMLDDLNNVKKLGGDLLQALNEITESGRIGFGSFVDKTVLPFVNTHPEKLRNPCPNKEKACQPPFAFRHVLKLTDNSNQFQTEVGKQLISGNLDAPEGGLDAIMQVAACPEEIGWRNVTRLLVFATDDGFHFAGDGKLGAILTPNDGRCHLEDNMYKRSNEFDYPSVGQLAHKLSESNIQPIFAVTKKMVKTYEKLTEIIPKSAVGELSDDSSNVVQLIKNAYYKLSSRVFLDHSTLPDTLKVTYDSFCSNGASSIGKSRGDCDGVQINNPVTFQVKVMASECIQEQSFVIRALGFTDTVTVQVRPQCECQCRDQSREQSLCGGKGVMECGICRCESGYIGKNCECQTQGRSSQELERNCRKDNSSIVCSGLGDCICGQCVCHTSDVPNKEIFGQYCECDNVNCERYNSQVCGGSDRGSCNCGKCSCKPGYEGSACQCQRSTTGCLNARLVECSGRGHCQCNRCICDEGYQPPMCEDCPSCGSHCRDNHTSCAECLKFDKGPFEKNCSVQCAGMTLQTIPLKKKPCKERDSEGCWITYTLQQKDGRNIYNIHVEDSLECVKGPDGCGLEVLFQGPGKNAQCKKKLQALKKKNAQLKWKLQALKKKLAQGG

| Molecule | Kd [1] [nM] | Kd [2] [nM] | koff [2] [s⁻¹] | kon [2] [M⁻¹ s⁻¹] |
| --- | --- | --- | --- | --- |
| adenylate cyclase toxin RTX751 (from UniProt P0DKX7) | 57 | – | – | – |
| RTX751 (RTX domain of the Bordetella pertussis adenylate cyclase toxin, residues 751 to 1706) (domain or fragment, Cloned into the NheI and BamHI sites of pET28a+; The vector may add N-terminal residues (His tag, thrombin site) before the Strep tag; also called recombinant RTX751) ANSDGLRKMLADLQAGWNASSVIGVQTTEISKSALELAAITGNADNLKSVDVFVDRFVQGERVAGQPVVLDVAAGGIDIASRKGERPALTFITPLAAPGEEQRRRTKTGKSEFTTFVEIVGKQDRWRIRDGAADTTIDLAKVVSQLVDANGVLKHSIKLDVIGGDGDDVVLANASRIHYDGGAGTNTVSYAALGRQDSITVSADGERFNVRKQLNNANVYREGVATQTTAYGKRTENVQYRHVELARVGQLVEVDTLEHVQHIIGGAGNDSITGNAHDNFLAGGSGDDRLDGGAGNDTLVGGEGQNTVIGGAGDDVFLQDLGVWSNQLDGGAGVDTVKYNVHQPSEERLERMGDTGIHADLQKGTVEKWPALNLFSVDHVKNIENLHGSRLNDRIAGDDQDNELWGHDGNDTIRGRGGDDILRGGLGLDTLYGEDGNDIFLQDDETVSDDIDGGAGLDTVDYSAMIHPGRIVAPHEYGFGIEADLSREWVRKASALGVDYYDNVRNVENVIGTSMKDVLIGDAQANTLMGQGGDDTVRGGDGDDLLFGGDGNDMLYGDAGNDTLYGGLGDDTLEGGAGNDWFGQTQAREHDVLRGGDGVDTVDYSQTGAHAGIAAGRIGLGILADLGAGRVDKLGEAGSSAYDTVSGIENVVGTELADRITGDAQANVLRGAGGADVLAGGEGDDVLLGGDGDDQLSGDAGRDRLYGEAGDDWFFQDAANAGNLLDGGDGRDTVDFSGPGRGLDAGAKGVFLSLGKGFASLMDEPETSNVLRNIENAVGSARDDVLIGDAGANVLNGLAGNDVLSGGAGDDVLLGDEGSDLLSGDAGNDDLFGGQGDDTYLFGVGYGHDTIYESGGGHDTIRINAGADQLWFARQGNDLEIRILGTDDALTVHDWYRDADHRVEIIHAANQAVDQAGIEKLVEAMAQYPDPGAAAAAPPAARVPDTLMQSLAVNWR | – | 52 | 0.0028 | 55000 |
